Assay results: US20140120095A1 (Boehringer Ingelheim, published 2014)
Read-outs that look alike come from different tables or passages of the source.

Legend:
[1] = target: T1, VEGFC (UniProt P49767 103-227, limits assumed); test: binding ELISA on coated VEGFC (Example 12.8), receptor positive control, OD 450 nm
T1 sequence (looked up): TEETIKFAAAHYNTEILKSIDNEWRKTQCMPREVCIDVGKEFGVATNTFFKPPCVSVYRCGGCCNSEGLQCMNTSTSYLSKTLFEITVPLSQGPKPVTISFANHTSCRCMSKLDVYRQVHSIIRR
Method: Binding to VEGFB, VEGFC, VEGFD and PIGF is assessed via a solid phase binding ELISA. […] Wells are blocked with a casein solution (1% in PBS). […] As positive controls serial dilutions of the appropriate receptors are taken along and detected with horseradish peroxidase (HRP)-conjugated goat anti-human IgG, Fc specific antibody (Jackson Immuno Research Laboratories Inc., West Grove, Pa., USA) and a subsequent enzymatic reaction in the presence of the substrate TMB (3,3′,5,5′-tetramentylbenzidine) (Pierce, Rockford, Ill., USA).

[2] = target: T2, human VEGFR2-Fc chimera (R&D Systems) (human, UniProt P35968 20-764); test: binding ELISA on coated recombinant human VEGF121 (Example 12.7), positive control, OD 450 nm
T2 construct: also called hVEGFR2-Fc; VEGFR2-huFc
Method: Binding to recombinant human VEGF121 is assessed via a solid phase binding ELISA. […] Wells are blocked with a casein solution (1% in PBS).

[3] = target: T3, recombinant human VEGF165 (human, UniProt P15692-4 27-191, biotinylated in the competition assays); test: SPR Biacore, VEGF165
T3 construct: Bought protein; also called hVEGF165; rhVEGF165

[4] = target: T3, recombinant human VEGF165; test: AlphaScreen, hVEGF165/hVEGFR2-Fc competition, +5 uM HSA
Method: (§1) These 2 competition assays are also performed after preincubation of the VHHs with 5 μM human serum albumin.

[5] = target: T3, recombinant human VEGF165; test: AlphaScreen, hVEGF165/hVEGFR2-Fc competition; parameters: % inhibition: concentration or dose not given beside the values
Target sequence in this assay (P15692 other isoform, or with tags, fused parts or gaps): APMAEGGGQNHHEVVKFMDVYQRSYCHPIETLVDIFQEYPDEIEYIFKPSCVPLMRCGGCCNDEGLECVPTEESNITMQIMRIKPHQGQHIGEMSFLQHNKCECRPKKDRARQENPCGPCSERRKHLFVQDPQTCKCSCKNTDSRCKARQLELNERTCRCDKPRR

[6] = target: T3, recombinant human VEGF165; test: AlphaScreen, hVEGF165/hVEGFR2-Fc competition
[7] = target: T4, VEGF (used to stimulate HUVEC cells) (UniProt P15692-4 27-191, limits assumed); test: cell-based or functional assay
[8] = target: T3, recombinant human VEGF165; test: AlphaScreen, hVEGF165/hVEGFR2-Fc competition, +5 uM HSA; remark: listed apart in the source
Method: as §1

[9] = target: T3, recombinant human VEGF165; test: AlphaScreen, hVEGF165/hVEGFR2-Fc competition, -HSA
[10] = target: T3, recombinant human VEGF165; test: AlphaScreen, hVEGF165/hVEGFR2-Fc competition, -HSA; remark: listed apart in the source
[11] = target: T4, VEGF (used to stimulate HUVEC cells); test: cell-based or functional assay; remark: listed apart in the source
[12] = target: T3, recombinant human VEGF165; test: AlphaScreen, hVEGF165/hVEGFR1-Fc competition, -HSA
[13] = target: T4, VEGF (used to stimulate HUVEC cells); test: cell-based or functional assay; remark: listed apart in the source
[14] = target: T4, VEGF (used to stimulate HUVEC cells); test: cell-based or functional assay; remark: listed apart in the source
[15] = target: T3, recombinant human VEGF165; test: AlphaScreen, hVEGF165/hVEGFR1-Fc competition, -HSA; remark: listed apart in the source

B1: human VEGFR2-Fc chimera (Fc fusion, UniProt P35968 20-764, looked up)
chain: ASVGLPSVSLDLPRLSIQKDILTIKANTTLQITCRGQRDLDWLWPNNQSGSEQRVEVTECSDGLFCKTLTIPKVIGNDTGAYKCFYRETDLASVIYVYVQDYRSPFIASVSDQHGVVYITENKNKTVVIPCLGSISNLNVSLCARYPEKRFVPDGNRISWDSKKGFTIPSYMISYAGMVFCEAKINDESYQSIMYIVVVVGYRIYDVVLSPSHGIELSVGEKLVLNCTARTELNVGIDFNWEYPSSKHQHKKLVNRDLKTQSGSEMKKFLSTLTIDGVTRSDQGLYTCAASSGLMTKKNSTFVRVHEKPFVAFGSGMESLVEATVGERVRIPAKYLGYPPPEIKWYKNGIPLESNHTIKAGHVLTIMEVSERDTGNYTVILTNPISKEKQSHVVSLVVYVPPQIGEKSLISPVDSYQYGTTQTLTCTVYAIPPPHHIHWYWQLEEECANEPSQAVSVTNPYPCEEWRSVEDFQGGNKIEVNKNQFALIEGKNKTVSTLVIQAANVSALYKCEAVNKVGRGERVISFHVTRGPEITLQPDMQPTEQESVSLWCTADRSTFENLTWYKLGPQPLPIHVGELPTPVCKNLDTLWKLNATMFSNSTNDILIMELKNASLQDQGDYVCLAQDRKTKKRHCVVRQLTVLERVAPTITGNLENQTTSIGESIEVSCTASGNPPPQIMWFKDNETLVEDSGIVLKDGNRNLTIRRVRKEDEGLYTCQACSVLGCAKVEAFFIIEGAQEKTNLE
notes: also called hVEGFR2-Fc; VEGFR2-huFc; not shown: human Fc part of the bought chimera; not described
EC50 (read off the curve) [1]: ~4 nM

B2: recombinant human VEGF121 (R&D Systems) (ligand, UniProt P15692-9 27-147, looked up)
chain: APMAEGGGQNHHEVVKFMDVYQRSYCHPIETLVDIFQEYPDEIEYIFKPSCVPLMRCGGCCNDEGLECVPTEESNITMQIMRIKPHQGQHIGEMSFLQHNKCECRPKKDRARQEKCDKPRR
notes: also called rhVEGF121
binding result [2]: binds

B3: VEGFBII23B04 (VHH, not shown: small tags and cut ends)
VHH: EVQLVESGGGLVQTGDSLRLSCEVSGRTFSSYSMGWFRQAQGKEREFVVAISKGGYKYDSVSLEGRFTISKDNAKNTVYLQINSLKPEDTAVYYCASSRAYGSSRLRLADTYEYWGQGTQVTVSS
notes: also called VEGFBII23B4; VEGFBII23B04 (wt)
Kd [3]: 0.56 nM
% inh [4]: 100%
IC50 [4]: 0.2 nM
% inhibition [5]: 100%
IC50 [5]: 0.169 nM
% inhibition [6]: 100%
IC50 [6]: 0.152 nM
% inhibition, VEGF HUVEC proliferation assay [7]: 92%
IC50, VEGF HUVEC proliferation assay [7]: 0.68 nM
% inh [8]: 100%
IC50 [8]: 0.3 nM
% inh [9]: 100%
IC50 [9]: 0.22 nM
% inh [10]: 100%
IC50 [10]: 0.19 nM
IC50, VEGF HUVEC proliferation assay [11]: 0.36 nM
% inh [12]: 44%
IC50 [12]: 0.43 nM
IC50, VEGF HUVEC Erk phosphorylation assay [13]: 0.37 nM
% inhibition, VEGF HUVEC proliferation assay, -HSA [14]: 87%
IC50, VEGF HUVEC proliferation assay, +HSA [14]: 0.69 nM
IC50, VEGF HUVEC proliferation assay, -HSA [14]: 0.78 nM
% inh [15]: 48%
IC50 [15]: 0.45 nM
